From patent US20220135687A1 (NANJING LEGEND BIOTECH, published 2022)
Numbering of substitutions follows the chain as printed. Numbers in names are those of the source. Blank lines part the entries; values can stand above or below the binder they belong to.

Target: T1, His-tagged PD-L1 ECD protein (ACROBiosystems) (human, UniProt Q9NZQ7 19-238)
T1 construct: Bought protein; also called PD-L1-His; PD-L1/His; not shown: His tag
Experiment: SPR, supernatant IgG captured, PD-L1-His analyte

T1 sequence (Q9NZQ7 19-238): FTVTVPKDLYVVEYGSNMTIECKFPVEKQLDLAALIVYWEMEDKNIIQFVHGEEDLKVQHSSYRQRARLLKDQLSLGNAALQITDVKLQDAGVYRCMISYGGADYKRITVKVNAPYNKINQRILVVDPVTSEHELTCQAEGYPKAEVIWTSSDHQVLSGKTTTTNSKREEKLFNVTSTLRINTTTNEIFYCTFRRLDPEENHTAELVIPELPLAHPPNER

- Kd: 1 nM
- koff: 0.00025 s⁻¹
- kon: 240000 M⁻¹ s⁻¹
B1: 53C1_VH2-VL1.M1 (antibody, human IgG1, kappa, N297A, V domains shown)
VH: EVQLVQSGAEVKKPGASVKVSCKASGYIFTGYGITWVRQAPGQGLEWIGEIFPRRVNTYYSEKFKGRATLTTDTSTSTAYMELRSLRSDDTAVYFCARDYDPYFALDYWGQGTTVTVSS
VL: DIQMTQSPSSLSASVGDRVTITCRASQDVSTAVDWYQQKPGKAPKLLIYSASYRYTGVPDRFSGSGSGTDFTFTISSLQPEDIATYYCQQHYSIPFTFGQGTKLEIKR
notes: Humanized, hIgG1 effector-less Fc, kappa; see recheck on K24R in the .M1 light chain

- Kd: 0.21 nM
- koff: 7.3e-05 s⁻¹
- kon: 350000 M⁻¹ s⁻¹
B2: 53C1_VH3.M3-VL1.M1 (antibody, human IgG1, kappa, N297A, V domains shown)
VH: B1 VH with V20L, N57Q, T72A
VL: B1 VL
notes: Humanized, VH N57Q in the entry; hIgG1 effector-less Fc, kappa; see recheck on K24R in the .M1 light chain
